For assay [1], the target named is T1, IREM-1-ECD-V5His recombinant protein (human, UniProt Q8TDQ1 20-156).
T1 construct: Produced in HEK-293 cells and purified on a Ni column; also called IREM-1 V5-6His protein; recombinant IREM-1 protein containing the complete extracellular domain; not shown: C-terminal V5-His tag
The assay is described as follows: SPR (Biacore), mAb captured on the chip, antigen in solution, 25 C; KD = kd/ka. A general note: SPR reads the build-up and loss of mass on a sensor chip optically.

Assay [2] deals with T2, IREM-1Δ6 deletion construct (human).
T2 construct: Deletion construct of IREM-1 expressed in 293 cells
T2 chain: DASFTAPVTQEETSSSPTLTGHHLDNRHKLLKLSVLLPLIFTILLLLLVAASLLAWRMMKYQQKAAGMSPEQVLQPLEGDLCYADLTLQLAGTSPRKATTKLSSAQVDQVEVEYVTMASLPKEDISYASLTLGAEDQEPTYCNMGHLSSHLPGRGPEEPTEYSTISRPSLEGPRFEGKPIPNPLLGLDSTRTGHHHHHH
Kind of assay: flow cytometry on 293 cells expressing the construct.

Assay [3] concerns the target IREM-1Δ1 deletion construct (human). Described as above.
For assay [4], the target named is T3, IREM-1Δ2 deletion construct (human).
T3 construct: Deletion construct of IREM-1 expressed in 293 cells
T3 chain: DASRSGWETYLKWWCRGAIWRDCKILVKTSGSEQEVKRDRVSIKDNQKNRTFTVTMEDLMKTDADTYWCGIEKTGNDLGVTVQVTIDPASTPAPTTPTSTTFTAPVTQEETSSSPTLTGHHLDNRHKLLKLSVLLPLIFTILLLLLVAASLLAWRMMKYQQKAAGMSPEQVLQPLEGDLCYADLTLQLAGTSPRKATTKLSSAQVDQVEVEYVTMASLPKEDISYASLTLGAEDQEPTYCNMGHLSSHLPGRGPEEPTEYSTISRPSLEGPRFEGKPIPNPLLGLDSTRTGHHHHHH
The assay is described as above.

Assay [5] has as its target T4, IREM-1Δ3 deletion construct (human).
T4 construct: Deletion construct of IREM-1 expressed in 293 cells
T4 chain: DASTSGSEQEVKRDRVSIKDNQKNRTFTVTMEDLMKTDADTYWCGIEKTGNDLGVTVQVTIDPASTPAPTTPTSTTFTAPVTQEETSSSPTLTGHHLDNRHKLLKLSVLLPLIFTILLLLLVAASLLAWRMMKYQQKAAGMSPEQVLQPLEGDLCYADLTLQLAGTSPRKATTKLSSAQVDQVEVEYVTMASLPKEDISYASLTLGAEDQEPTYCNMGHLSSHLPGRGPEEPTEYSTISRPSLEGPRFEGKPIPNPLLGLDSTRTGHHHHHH
Described as above.

The target of assay [6] is T5, IREM-1Δ4 deletion construct (human).
T5 construct: Deletion construct of IREM-1 expressed in 293 cells
T5 chain: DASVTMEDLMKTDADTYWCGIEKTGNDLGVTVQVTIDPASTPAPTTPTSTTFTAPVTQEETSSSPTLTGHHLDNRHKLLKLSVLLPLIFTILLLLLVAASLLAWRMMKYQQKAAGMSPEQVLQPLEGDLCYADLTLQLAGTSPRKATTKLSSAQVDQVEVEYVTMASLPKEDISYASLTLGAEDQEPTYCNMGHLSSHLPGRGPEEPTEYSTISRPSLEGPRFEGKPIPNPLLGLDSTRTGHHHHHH
The assay is described as above.

Assay [7] deals with T6, IREM-1Δ5 deletion construct (human).
T6 construct: Deletion construct of IREM-1 expressed in 293 cells
T6 chain: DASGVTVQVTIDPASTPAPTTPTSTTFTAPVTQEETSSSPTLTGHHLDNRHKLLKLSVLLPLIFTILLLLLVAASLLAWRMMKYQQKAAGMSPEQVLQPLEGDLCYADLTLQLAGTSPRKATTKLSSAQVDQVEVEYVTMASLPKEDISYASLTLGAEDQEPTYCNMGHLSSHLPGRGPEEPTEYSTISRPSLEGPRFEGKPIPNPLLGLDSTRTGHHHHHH
Described as above.

In assay [8] the target is T1, IREM-1-ECD-V5His recombinant protein. The assay is described as follows: SPR (Biacore), mAb captured on the chip, antigen in solution, 25 C.
Method: Kinetic rate constants (kₐ and kd) were determined using surface plasmon resonance and affinities (KD) were then calculated from the rate constants (kd/kₐ). Surface plasmon resonance was carried out on a BlAcore system (Biacore International AB, Uppsala, Sweden). […] Each of 5 concentrations was tested twice except the highest concentration which was tested 5 times in total, two times with a short dissociation of 300 seconds followed by three times with a dissociation of 60 minutes. The data sets from the long dissociation experiments were globally fit with the shorter association experiments to determine binding constants for the interactions. The analysis was carried out in HBS, pH 7.4 buffer at 25° C.
The target of assay [9] is human IREM-1 (full-length, on cells) (human, UniProt Q8TDQ1 20-290). The assay is described as follows: cell-based or functional assay.

B1: chimeric anti-IREM-1 monoclonal antibody D12 (antibody, human IgG1, V domains shown)
VH: EIQLQQSGAELVRPGTSVKVSCKASGYAFTNYLIEWVKQRPGQGLEWIGVINPGSGGSYYNEKFKGKTTLTADKSSSTAYMQLSSLAFDDSAVYFCARSESNYSYYYAMDYWGQGTSVIVSS
VL: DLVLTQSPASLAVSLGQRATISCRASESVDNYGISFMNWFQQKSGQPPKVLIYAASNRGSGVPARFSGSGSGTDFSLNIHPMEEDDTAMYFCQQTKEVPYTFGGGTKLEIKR
notes: No cleavage site is stated; also called mAb D12; clone #D12
For B1, the Kd (as a rule, the constant that tells how readily two partners part at equilibrium) in assay [1] worked out at 2.8 nM. Also, the binding result is on record as “no binding” in [2]; “binds” in assay [3]; “no binding” in assay [4]; “no binding” in assay [5]; “no binding” in [6]; “no binding” in assay [7]. Moreover, the koff – broadly, the rate constant with which the complex falls apart – in assay [8] was determined as 0.00072 s⁻¹. For the same molecule, the kon (as a rule, a measure of how fast the partners come together) in [8] was found to be 255000 M⁻¹ s⁻¹.

B2: chimeric anti-IREM-1 monoclonal antibody B11 (antibody, human IgG1, V domains shown)
VH: QIQLVQSGPELEKPGETVKISCKASGYTFTNYPMHWVKQAPGKGLKWMGWINTYSGVPTYADDFKGRFAFSLETSASTAYLQINNLKNEDMATYFCARMDYYSNGFNYWGQGTTLTVSS
VL: DVLMTQTPLSLPVSLGDQASISCRSSQSIVHSNGNTYLEWYLQKPGQSPKLLIYKVSNRFSGVPDRFSGSGSGTDFTLKISRVEAEDLGVYYCFQGSHVPWTFGGGTKLEIKR
notes: No cleavage site is stated; also called mAb B11; VL2VH2
For the molecule B2, the Kd in [1] came out at 2.3 nM. The binding result is “no binding” in assay [2]; “binds” in assay [3]; “no binding” in assay [4]; “no binding” in assay [5]; “no binding” in assay [6]; “no binding” in [7]. Besides, the koff in assay [8] worked out at 0.00066 s⁻¹. The kon in [8] turned out to be 282000 M⁻¹ s⁻¹.

B3: chimeric anti-IREM-1 monoclonal antibody 871.1 (antibody, human IgG1, V domains shown)
VH: EVKLVESGGGLVQPGGSLSLSCAASGFTFTDYYMSWVRQPPGMAPEWLGFIRNKANGYTTEYSASVKGRFTISRDDSQSILYLQMNALRAEDSATYYCAREDYGSSWGYYAMDCWGQGTSVTVSS
VL: DIVMTQSQKFMSTSVGDRVSVTCKASQNVDTNVAWYQQKPGQSPKALLYSASYRHSGVPDRFTGSGSETDFTLTITNVQSEDLAEYFCQQYNSFPLTFGSGTKLEIRR
notes: The CDC assays use an IgG2b isotype control, so the murine form may have been used there; No cleavage site is stated; also called mAb 871.1; VL1VH1
With B3, the binding result was “no binding” in [2]; “binds” in [3]; “no binding” in assay [4]; “no binding” in [5]; “no binding” in [6]; “no binding” in [7]. The kon in assay [8] was found to be 228000 M⁻¹ s⁻¹. The “CDC (complement-dependent cytotoxicity) EC50 on 293 cells expressing IREM-1” value in assay [9] is approximately 10 ng/mL. For the same molecule, the “CDC EC50 on AML cell line HL-60” value in assay [9] fell in the range of 1970 to 3840 ng/mL. In [9], the “CDC EC50 on stage M1 AML patient sample” value came out at 6.2 pg/mL.

The record behind these values is patent publication US20100291108A1 (published 2010).
